Tests used:
[1] = Single dose pharmacokinetics in rats (IV and SC, LS-2016-2033); assay type: in vivo, Sprague-Dawley Rats
MRL/MpJ-Faslpr mice = assay: Mouse model of systemic lupus erythematosus (SLE); assay type: in vivo
Protocol: The MRL/MpJ-Faslpr mouse model develops an autoimmune disease that reflects pathologies of human SLE, including lymph node enlargement, increased IgG levels, antinuclear antibody production, proteinuria, and kidney failure caused by inflammation of the glomeruli. […] On dosing days, a suitable quantity of test article is withdrawn and diluted with vehicle to arrive at the desired dosing concentration (0.03 mg/kg dose and 0.3 mg/kg dose); dose volume was 5 mL/kg. Animals used for the study are MRL/MpJ-Faslpr mice and MRL/MpJ naive, female mice, aged from 6-8 weeks. Animals are assigned to treatment groups by randomization. Treatment groups are described in Table 13 below. 45 MRL/MpJ-Faslpr mice are randomized into 3 groups (15 each for Groups 2-4) based on body weight and level of protein content in urine before the commencement of the experiment. Animals in Groups 2-4 receive vehicle or test article delivered subcutaneously as described in Table 6. Group 1-MRL/MpJ mice receive the vehicle as a negative control. Three (3) days after the first dose administration on Week 8, 3 mice from Groups 2-4 are humanely sacrificed and blood samples were collected and processed. Body weights are measured twice a week from the commencement of the study and continued throughout. Skin lesion pictures were taken when first observed and then at one week intervals. Urine is obtained the day before dosing (at baseline) and then collected weekly thereafter. Protein levels in the urine are measured using a Siemens Clinitek Status Analyzer. On sacrifice day (3 days after the last dose at the end of Week 20), all mice are anesthetized by intraperitoneal injection of chloral hydrate (50 mg/kg). Blood samples are collected, and centrifuged at 10000 r/min for 10 min to obtain serum samples. The serum is stored at −80° C. until clinical biochemistry testing. Serum samples (100 μl) are analyzed for anti-dsDNA level by ELISA (Mouse Anti-dsDNA IgG-specific ELISA Kit, Alpha Diagnostic International, Cat. No. 5120) and the serum tested for BUN concentration using a Hitachi 7020 Automatic Biochemistry Analyzer. For lymphocyte analysis, blood samples are collected in EDTA-K tubes and tested for CD3/CD4/CD8/Treg/NK/B cell % by flow cytometry. […] This study further elucidates the effect of RUR-IL-2-induced Tregs on control of the physiological immune response and disease progression in a representative animal model of SLE.

[2] = Phase I ascending multiple-dose study in patients with SLE: pharmacokinetics; assay type: in vivo, human; conditions: Multi-Dose Study
Protocol: The effects on SLE disease activity are also evaluated. Twelve SLE patients with minimal to moderate disease activity are randomized to each of four dose cohorts, nine of whom received multiple 1.0 mg/mL aqueous solution sub-cutaneous doses of RUR-IL-2-20 kD, while three received placebo. […] In Cohort 1, a starting dose of 3.0 μg/kg is administered three times at two-week intervals (Days 1, 15, and 29). This starting dose is based on the favorable safety and PD profile of single sub-cutaneous doses of RUR20kD-IL-2 previously determined in the study described above. The subsequent dose levels in Cohorts 2, 3, and 4, respectively, were up to two-fold that of the previous dose cohort. Patients in Cohorts 1-3 received three doses of study drug at two-week intervals over a total of four weeks. Doses to be evaluated over the course of the study range from 3.0 μg/kg to 24 μg/kg. […] After receiving the final dose of RUR20kD-IL-2 or placebo, patients are followed for an additional fifty days to evaluate safety, PK, PD, and preliminary efficacy. Eight of twelve subjects in each cohort are evaluated two weeks after the third dose of the final patient by the Safety Review Committee for possible safety issues. In addition, all patients in Cohort 4 are evaluated by the Safety Review Committee twice: (1) two weeks after the first eight subjects receive their third dose and (2) two weeks after all subjects receive all doses of study drug. Immunologic changes, including Tregs, CD4^+-T cells, CD8^+-T cells, and NK cell responses, cytokine levels, and available PK data, in addition to safety findings, are used to determine dose levels. The primary objective of the study is to evaluate the safety and tolerability of RUR20kD-IL-2 administered as multiple ascending subcutaneous doses to patients with SLE. […] Results depicting preliminary PK data from the ascending multi-dose study are compared with data from the single subcutaneous study in the below Table 15: […]

[3] = Sprague-Dawley rats, single IV 0.01 mg/kg, plasma, mean ± SE
[4] = Sprague-Dawley rats, single IV 0.1 mg/kg, plasma, mean ± SE
[5] = Sprague-Dawley rats, single IV 1 mg/kg, plasma, mean ± SE
[6] = Sprague-Dawley rats, single SC 0.01 mg/kg, plasma, mean ± SE
[7] = Sprague-Dawley rats, single SC 0.1 mg/kg, plasma, mean ± SE
[8] = Sprague-Dawley rats, single SC 1 mg/kg, plasma, mean ± SE
[9] = repeat administration over 12 weeks

(1,3-bis(methoxypoly(ethylene glycol)10kDcarbamoyl)-2-propanoxy)-4-butanamide)interleukin-2) [RUR20kD-IL-2]
AUCinf [1, 3]: 17800 ± 1000 ng·h/mL | AUClast [1, 3]: 17800 ± 900 ng·h/mL | CL [1, 3]: 13.4 ± 0.72 mL/day/kg | Half-life [1, 3]: 30 ± 3.84 h | MRTinf [1, 3]: 44.9 ± 5.04 h | Vss [1, 3]: 0.0251 L/kg | AUCinf [1, 4]: 120000 ± 8000 ng·h/mL | AUClast [1, 4]: 120000 ± 8000 ng·h/mL | CL [1, 4]: 20.2 ± 1.4 mL/day/kg | Half-life [1, 4]: 40.1 ± 0.24 h | MRTinf [1, 4]: 52.3 ± 0.96 h | Vss [1, 4]: 0.0441 ± 0.0035 L/kg | AUCinf [1, 5]: 877000 ± 39000 ng·h/mL | AUClast [1, 5]: 870000 ± 35000 ng·h/mL | CL [1, 5]: 27.4 ± 1.2 mL/day/kg | Half-life [1, 5]: 37.4 ± 5.28 h | MRTinf [1, 5]: 45.6 ± 3.84 h | Vss [1, 5]: 0.0526 L/kg | Absolute Bioavailability ([1]; Sprague-Dawley rats, single SC 0.01 mg/kg): 40.2% | AUCinf [1, 6]: 7160 ± 530 ng·h/mL | AUClast [1, 6]: 7120 ± 510 ng·h/mL | Cmax [1, 6]: 95 ± 6 ng/mL | Half-life [1, 6]: 32.4 ± 1.4 h | MRTinf [1, 6]: 64.8 ± 1.4 h | tmax [1, 6]: 31.9 ± 7.92 h | Absolute Bioavailability ([1]; Sprague-Dawley rats, single SC 0.1 mg/kg): 29.8% | AUCinf [1, 7]: 35700 ± 5100 ng·h/mL | AUClast [1, 7]: 35500 ± 5100 ng·h/mL | Cmax [1, 7]: 380 ± 40 ng/mL | Half-life [1, 7]: 46.1 ± 1.9 h | MRTinf [1, 7]: 82.1 ± 6.72 h | tmax [1, 7]: 48 ± 0 h | Absolute Bioavailability ([1]; Sprague-Dawley rats, single SC 1 mg/kg): 46.0% | AUCinf [1, 8]: 404000 ± 79000 ng·h/mL | AUClast [1, 8]: 398000 ± 74000 ng·h/mL | Cmax [1, 8]: 4860 ± 930 ng/mL | Half-life [1, 8]: 30.5 ± 7.68 h | MRTinf [1, 8]: 67.7 ± 3.84 h | tmax [1, 8]: 55.2 ± 7.92 h | Vss relative to species-specific plasma volume ([1]; rats): 1-2 fold | Bioavailability ([1]; rats, SC, range over doses): 29.8-46.0% | tmax ([1]; rats, SC, range over doses): 24 to 55.2 h | half-lives ([1]; rats, intravenous or subcutaneous dosing, range): 1.25 to 2.44 days | Plasma clearance (CL) ([1]; rats, range over doses): 13.4 to 27.4 mL/day/kg | protein levels in urine (biomarker of kidney damage) (MRL/MpJ-Faslpr mice; 0.3 mg/kg s.c. twice weekly, week 8 to week 20): nearly the same levels as observed in normal mice | Treg elevation (MRL/MpJ-Faslpr mice; [9]): sustains Treg elevation | blood urea nitrogen (MRL/MpJ-Faslpr mice; [9]): reduces blood urea nitrogen | urine protein levels and kidney histopathology (MRL/MpJ-Faslpr mice; [9]): returns urine protein levels and kidney histopathology to normal | AUC0-14 d ([2]; 3.0 μg/kg, Median (n = 9)): 185 ng·days/mL | Cmax ([2]; 3.0 μg/kg, Median (n = 9)): 18 ng/mL | tmax ([2]; 3.0 μg/kg, Median (n = 9)): 140 h | AUC0-14 d ([2]; 3.0 μg/kg, max): 291 ng·days/mL | Cmax ([2]; 3.0 μg/kg, max): 26 ng/mL | tmax ([2]; 3.0 μg/kg, max): 336 h | AUC0-14 d ([2]; 3.0 μg/kg, min): 113 ng·days/mL | Cmax ([2]; 3.0 μg/kg, min): 15 ng/mL | tmax ([2]; 3.0 μg/kg, min): 48 h | Cmax ([2]; 6.0 μg/kg, Median (n = 7)): 14 ng/mL | tmax ([2]; 6.0 μg/kg, Median (n = 7)): 140 h | AUC0-14 d ([2]; 6.0 μg/kg, max): 206 ng·days/mL | Cmax ([2]; 6.0 μg/kg, max): 22 ng/mL | tmax ([2]; 6.0 μg/kg, max): 336 h | AUC0-14 d ([2]; 6.0 μg/kg, min): 43 ng·days/mL | Cmax ([2]; 6.0 μg/kg, min): 5 ng/mL | tmax ([2]; 6.0 μg/kg, min): 96 h
